Experimental findings from article PMC8372624 are described below.

The target in the experiment is fluorescently labeled non-covalent analog of peptide 5 with a non-nucleophilic acetate group on position 133 (UniProt P46937). The experiment is described as follows: fluorescence polarisation.
Sequence of UniProt P46937 (P46937 whole entry, looked up, tested part not stated): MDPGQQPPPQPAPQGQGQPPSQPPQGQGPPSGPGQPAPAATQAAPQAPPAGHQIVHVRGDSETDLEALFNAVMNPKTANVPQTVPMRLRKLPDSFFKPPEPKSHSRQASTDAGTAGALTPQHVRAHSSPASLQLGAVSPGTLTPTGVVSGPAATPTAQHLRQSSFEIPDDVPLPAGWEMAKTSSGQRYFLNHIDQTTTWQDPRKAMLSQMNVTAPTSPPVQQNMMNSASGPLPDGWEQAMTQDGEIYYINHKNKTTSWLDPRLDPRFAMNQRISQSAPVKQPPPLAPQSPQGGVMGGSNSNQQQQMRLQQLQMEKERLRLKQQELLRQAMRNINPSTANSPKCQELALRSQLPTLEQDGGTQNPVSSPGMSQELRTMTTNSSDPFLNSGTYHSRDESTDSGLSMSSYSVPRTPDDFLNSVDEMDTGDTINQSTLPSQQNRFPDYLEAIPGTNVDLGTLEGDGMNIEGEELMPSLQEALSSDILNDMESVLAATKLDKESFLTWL

B1: recombinant full-length 14-3-3σ (1–248) (natural protein)
chain: MERASLIQKAKLAEQAERYEDMAAFMKGAVEKGEELSCEERNLLSVAYKNVVGGQRAAWRVLSSIEQKSNEEGSEEKGPEVREYREKVETELQGVCDTVLGLLDSHLIKEAGDAESRVFYLKMKGDYYRYLAEVATGDDKKRIIDSARSAYQEAMDISKKEMPPTNPIRLGLALNFSVFHYEIANSPEEAISLAKTTFDEAMADLHTLSEDSYKDSTLIMQLLRDNLTLWTADNAGEEGGEAPQEPQS
Take B1: the dissociation constant (Kd) (commonly the concentration at which binding is half-saturated) stood at 106 nM.
